“And” between values parts separate entries of the source, which are not always exact repeats. Equal values may be shown once.
Settings: Equus caballus, pH 5, 15 °C, Abs, CD, Fluorescence, Sodium acetate 0.1 M, reversible: Yes
[1] = GdnHCl, transition: 3, structure 1AKK

Cytochrome c H34N, P00004, sequence (P00004 whole entry H34N): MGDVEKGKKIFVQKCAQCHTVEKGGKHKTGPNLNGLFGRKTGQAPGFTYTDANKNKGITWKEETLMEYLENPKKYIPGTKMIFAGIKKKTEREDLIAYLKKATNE
Cytochrome c wild type, P00004, sequence (P00004 whole entry): as the sequence (P00004 whole entry H34N) above, with N34H counted along it

Row | Substance | denaturant m value (GdnHCl, structure 1AKK) [kcal/mol/M] | unfolding free energy (GdnHCl, structure 1AKK) [kcal/mol] | denaturant m value [1] | denaturant midpoint (higher = more stable) [1] | unfolding free energy [1] | denaturant m value (Urea, structure 1AKK) [kcal/mol/M] | unfolding free energy (Urea, structure 1AKK) [kcal/mol] | denaturant midpoint (higher = more stable) (Urea, transition: 3, structure 1AKK) | denaturant m value (GdnHCl) [kcal/mol/M] | unfolding free energy (GdnHCl) [kcal/mol] | denaturant m value (GdnHCl, transition: 3) | denaturant midpoint (higher = more stable) (GdnHCl, transition: 3)
1 | Cytochrome c H34N, P00004 | 4.8 | 10.8 | 1.7 kcal/mol/M and 3.08 kcal/mol/M | 2.07 M and 2.34 M | 3.5 kcal/mol and 7.3 kcal/mol | 2.43 | 10.5 | 4 M and 4.81 M | – | – | – | –
2 | Cytochrome c wild type, P00004 | – | – | – | – | – | – | – | – | 4.39 | 9.8 | 1.34 kcal/mol/M and 3.05 kcal/mol/M | 1.5 M and 2.55 M

Source: FireProtDB (doi:10.1016/j.jmb.2006.01.055)
